T1: SARS-CoV-2 Spike protein peptide on HLA-DPB1*04:01 (human)
T1 peptide: TFEYVSQPFLMDLE

T2: SARS-CoV-2 Spike protein peptide on HLA-DPB1*04:01 (human)
T2 peptide: CTFEYVSQPFLMDLE

B1: TCR6.3 (TCR)
alpha TRAV35 TRAJ42 CDR3: CAGMNYGGSQGNLIF
beta TRBV6-3 TRBJ1-2 CDR3: CASSYRGAYGYTF
B2: TCR4.1 (TCR)
alpha TRAV35 TRAJ42 CDR3: CAGMNYGGSQGNLIF
beta TRBV4-1 TRBJ1-2 CDR3: CASSQGVGYTF

Key:
[1] = biological target: T1, SARS-CoV-2 Spike protein peptide on …; experiment: multimer staining
[2] = biological target: T2, SARS-CoV-2 Spike protein peptide on …; experiment: activation reporter or marker

Row | Binder | binding result [1] | binding result [2]
1 | B1 | recognises | recognises
2 | B2 | recognises | recognises

From paper doi:10.1101/2021.09.08.459485 (2021)
